This is an account of results in patent US20260265393A1.

The target of assay [1] is human CD27 (transmembrane protein) on the cell membrane (human) (UniProt P26842). Description: flow cytometry on human PBMC, antibody 5 ug/mL, CD19 PE-A against APC-A (Example 3.3); other quadrants printed: Q3-UL 15.04 %, Q3-LL 29.25 %, Q3-LR 51.11 %.
Assay [2] concerns the target CD27-mFc (Kangdai) (human) (UniProt P26842). In words: competition ELISA: CD70 coated, CD27-mFc plus antibody dilutions; competitor CD70. On the technique in general: An ELISA detects its analyte on a solid surface through an enzyme-linked reagent.
Assay [3] concerns the target antigen CD27 (soluble, as used in the BLI and SPR experiments) (UniProt P26842). Description: BLI, antibody captured on AHC probe, CD27 in solution. Background: Biolayer interferometry detects binding as a change in optical thickness at a sensor tip.
Assay [4] addresses human CD27 (transmembrane protein) on the cell membrane (human) (UniProt P26842). In words: flow cytometry on human PBMC, antibody 5 ug/mL, CD3 FITC-A against APC-A (Example 3.3); other quadrants printed: Q2-UL 16.97 %, Q2-LL 27.93 %, Q2-LR 8.25 %. (In flow cytometry, cells or beads pass a laser one at a time.)
The target is the same in assay [5]. In words: flow cytometry on CHO cells expressing human CD27.
In assay [6] the target is CD27-mFc (Kangdai) (human) (UniProt P26842). In words: ELISA on coated CD27-mFc.
Chain of CD27-mFc (Kangdai) (human) (P26842 21-192 limits assumed): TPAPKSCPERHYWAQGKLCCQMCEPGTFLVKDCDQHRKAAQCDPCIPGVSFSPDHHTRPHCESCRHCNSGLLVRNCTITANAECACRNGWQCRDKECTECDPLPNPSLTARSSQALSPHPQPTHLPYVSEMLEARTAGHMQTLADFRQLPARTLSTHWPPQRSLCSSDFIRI
Assay [7] has the same target. In words: competition ELISA: coated CD70 (1 ug/mL), CD27-mFc fixed at 4.3 ug/mL plus antibody dilution, HRP anti-mouse Fc detection; blocked ligand CD70 (Example 3.5).
Assay [8] has the same target. In words: ELISA on coated CD27-mFc (1 ug/mL), AP anti-human Fc detection, absorption at 405/490 nm (Example 15.2).

Chain of human CD27 (transmembrane protein) on the cell membrane (human) (P26842 20-260): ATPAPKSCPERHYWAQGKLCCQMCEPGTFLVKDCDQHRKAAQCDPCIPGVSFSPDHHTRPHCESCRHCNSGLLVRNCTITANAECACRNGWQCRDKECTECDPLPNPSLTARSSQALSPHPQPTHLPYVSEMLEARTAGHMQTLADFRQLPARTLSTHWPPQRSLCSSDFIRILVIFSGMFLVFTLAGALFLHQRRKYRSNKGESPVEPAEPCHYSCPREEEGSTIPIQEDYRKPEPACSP
Chain of antigen CD27 (soluble, as used in the BLI and SPR experiments) (P26842 21-192 limits assumed): as the sequence (P26842 21-192 limits assumed) above

The IC50 is the concentration at which inhibition is half-maximal. A word on the Kd: it is a measure of binding affinity in units of concentration. Lower therefore signals a tighter complex. In general, koff refers to a measure of how fast the partners let go of each other. A low value points to a long-lived complex. As a reminder, the kon is a measure of how fast the partners come together. Read a high kon as faster complex formation. The EC50 is the concentration at which the effect is half-maximal. High values mean a less potent agent, low ones a more potent agent. For the substance “CD27 monoclonal antibody Varlilumab (1F5)”, in assay [1], the Q3-UR, percent of gated cells that are CD19 PE+ and APC+ (antibody-stained) came out at 4.6%. Further, the IC50 in assay [2] was found to be 1.31 µg/mL. For the same substance, in assay [3], the Kd worked out at 0.696 nM, the koff was 8.75e-05 s⁻¹ and the kon turned out to be 126000 M⁻¹ s⁻¹. Also, the Q2-UR, percent of gated cells that are CD3 FITC+ and APC+ (antibody-stained) in assay [4] came to 46.9%. In addition, the EC50 in assay [5] was determined as 2.87 µg/mL. In assay [6], the half-maximal effective concentration (EC50) stood at 0.0381 µg/mL. Also, the IC50 (read off the curve) in assay [7] is 1 µg/mL. Moreover, the EC50 in assay [8] worked out at 0.032 µg/mL.
